According to patent US20030100501A1, “Q4N2NEG2 enhances CFTR activity” (Case Western Reserve University, priority 2001, published 2003):
Square brackets hold non-standard residues; d marks the D form. Ends that are not written are not given here. Nle = CCCC[C@H](N)C(=O)O

Columns and labels:
[1] = target: T1, wt-CFTR channel (Homo sapiens, UniProt P13569); experiment: Single channel recording of CFTR channels reconstituted in planar lipid bilayer, peptide added to cis (intracellular) side; assay type: biochemical
T1 construct: expressed in transfected cells; host or cells: 293-EBNA HEK cells (Invitrogen) transfected with pCEP4(wt); microsomal membrane vesicles
Description: The activating peptide of Q4N2NEG2 was created by substituting glutamine residues for glutamic acid residues at four sites and asparagines for aspartic acid residues at two sites of the authentic NEG2 peptide sequence […] (SEQ ID NO: 7). In addition, a serine residue was substituted for cysteine, to prevent peptide dimerization, and norleucine was substituted for methionine, to prevent oxidation. These changes create a peptide with reduced chemical reactivity and high predicted helical structure, confirmed by circular dichroism, as well as reduced net negative charge (from −9 to −3). […] At concentrations of 4-6 μM Po of CFTR doubles.
To test whether the Q4N2NEG2 polypeptide is responsible for increasing the open probability of the CFTR channel, synthetic Q4N2NEG2, a 22 amino acid peptide, was added to the cis-intracellular side of single CFTR channels captured in the planar lipid bilayer (FIG. 1). […] During stimulation, the open probability doubles and more transitions are observed between the open and closed states (FIG. 1B). The open probability observed in 5 experiments at 4 μM concentration Q4N2NEG2 is shown to be increased by about two-fold in the graph (FIG. 1C).
The wt CFTR cDNA was subcloned into an Epstein-Barr virus-based episomal eukaryotic expression vector, pCEP4 (Invitrogen, San Diego, Calif.), between the Nhe1 and Xho1 restriction sites.
A human embryonic kidney cell line (293-EBNA HEK; Invitrogen) was used for transfection and expression of the CFTR proteins (Ma et al., 1997, Ma et al., 1996, Xie et al., 1995). The HEK-293 cell line contains a pCMV-EBNA vector, which constitutively expresses the Epstein-Barr virus nuclear antigen-1 (EBNA-1) gene product and increases the transfection efficiency of Epstein-Barr virus-based vectors. The cells were maintained in Dulbecco's Modified Eagle Medium with 10% FBS and 1% L-glutamine. Geneticin (G418, 250 (g/ml) was added to the cell culture medium to maintain selection of the cells containing the pCMV-EBNA vector. Lipofectamine reagent (Life Technologies, Inc) in Optimem media (serum-free) was used to transfect the HEK-293 cells with pCEP4(wt). After 5 hours, serum was added to the media (10% final serum concentration). Twenty-four hours after transfection, the transfection media was replaced with fresh media. The cells were harvested two days after transfection and microsomal membrane vesicles were prepared for single channel measurements in the lipid bilayer reconstitution system.
HEK-293 cells transfected with pCEP4(CFTR) were harvested and homogenized using a combination of hypotonic lysis and Dounce homogenization in the presence of protease inhibitors (Ma et al., 1997, Ma et al., 1996, Xie et al., 1995). […]
Lipid bilayer membranes were formed across an aperture of ˜200 (m diameter with a mixture of phosphatidylethanolamine:phosphatidylserine:cholesterol in a ratio of 5:5:1. The lipids were dissolved in decane at a concentration of 33 mg/ml. The recording solutions contained: cis (intracellular), 200 mM CsCl, 1 mM MgCl2, 2 mM ATP, and 10 mM HEPES-Tris (pH 7.4); trans (extracellular), 50 mM CsCl, 10 mM HEPES-Tris (pH 7.4). Vesicles (1-4 (1) containing wild-type CFTR were added to the cis solution. The PKA catalytic subunit was present at a concentration of 50 units/ml in the cis solution unless noted otherwise. Single channel currents were recorded with an Axopatch 200A patch clamp unit (Axon Instruments). […]

[2] = target: T2, mutant G551D CFTR (Homo sapiens, UniProt P13569, G551D); experiment: Planar lipid bilayer open probability of mutant CFTR; assay type: biochemical
T2 construct: expressed in transfected cells; host or cells: 293-EBNA HEK cells (inferred: the methods describe this line for 'the CFTR proteins')
Description: The Q4 N2 NEG2 peptide sequence has been tested on one mutant form of CFTR, G551D, which reaches the plasma membrane. In the planar lipid bilayer, Q4N2NEG2 increased the open probability of G551 by about threefold. Thus, this peptide is useful to stimulate channel activity in mutant forms of CFTR that reach the plasma membrane.
Lipid bilayer membranes were formed across an aperture of ˜200 (m diameter with a mixture of phosphatidylethanolamine:phosphatidylserine:cholesterol in a ratio of 5:5:1. The lipids were dissolved in decane at a concentration of 33 mg/ml. The recording solutions contained: cis (intracellular), 200 mM CsCl, 1 mM MgCl2, 2 mM ATP, and 10 mM HEPES-Tris (pH 7.4); trans (extracellular), 50 mM CsCl, 10 mM HEPES-Tris (pH 7.4). Vesicles (1-4 (1) containing wild-type CFTR were added to the cis solution. The PKA catalytic subunit was present at a concentration of 50 units/ml in the cis solution unless noted otherwise. Single channel currents were recorded with an Axopatch 200A patch clamp unit (Axon Instruments). The currents were sampled at 1-2.5 ms/point. Single channel data analyses were performed with pClamp and TIPS softwares.

T1 sequence (P13569 whole entry): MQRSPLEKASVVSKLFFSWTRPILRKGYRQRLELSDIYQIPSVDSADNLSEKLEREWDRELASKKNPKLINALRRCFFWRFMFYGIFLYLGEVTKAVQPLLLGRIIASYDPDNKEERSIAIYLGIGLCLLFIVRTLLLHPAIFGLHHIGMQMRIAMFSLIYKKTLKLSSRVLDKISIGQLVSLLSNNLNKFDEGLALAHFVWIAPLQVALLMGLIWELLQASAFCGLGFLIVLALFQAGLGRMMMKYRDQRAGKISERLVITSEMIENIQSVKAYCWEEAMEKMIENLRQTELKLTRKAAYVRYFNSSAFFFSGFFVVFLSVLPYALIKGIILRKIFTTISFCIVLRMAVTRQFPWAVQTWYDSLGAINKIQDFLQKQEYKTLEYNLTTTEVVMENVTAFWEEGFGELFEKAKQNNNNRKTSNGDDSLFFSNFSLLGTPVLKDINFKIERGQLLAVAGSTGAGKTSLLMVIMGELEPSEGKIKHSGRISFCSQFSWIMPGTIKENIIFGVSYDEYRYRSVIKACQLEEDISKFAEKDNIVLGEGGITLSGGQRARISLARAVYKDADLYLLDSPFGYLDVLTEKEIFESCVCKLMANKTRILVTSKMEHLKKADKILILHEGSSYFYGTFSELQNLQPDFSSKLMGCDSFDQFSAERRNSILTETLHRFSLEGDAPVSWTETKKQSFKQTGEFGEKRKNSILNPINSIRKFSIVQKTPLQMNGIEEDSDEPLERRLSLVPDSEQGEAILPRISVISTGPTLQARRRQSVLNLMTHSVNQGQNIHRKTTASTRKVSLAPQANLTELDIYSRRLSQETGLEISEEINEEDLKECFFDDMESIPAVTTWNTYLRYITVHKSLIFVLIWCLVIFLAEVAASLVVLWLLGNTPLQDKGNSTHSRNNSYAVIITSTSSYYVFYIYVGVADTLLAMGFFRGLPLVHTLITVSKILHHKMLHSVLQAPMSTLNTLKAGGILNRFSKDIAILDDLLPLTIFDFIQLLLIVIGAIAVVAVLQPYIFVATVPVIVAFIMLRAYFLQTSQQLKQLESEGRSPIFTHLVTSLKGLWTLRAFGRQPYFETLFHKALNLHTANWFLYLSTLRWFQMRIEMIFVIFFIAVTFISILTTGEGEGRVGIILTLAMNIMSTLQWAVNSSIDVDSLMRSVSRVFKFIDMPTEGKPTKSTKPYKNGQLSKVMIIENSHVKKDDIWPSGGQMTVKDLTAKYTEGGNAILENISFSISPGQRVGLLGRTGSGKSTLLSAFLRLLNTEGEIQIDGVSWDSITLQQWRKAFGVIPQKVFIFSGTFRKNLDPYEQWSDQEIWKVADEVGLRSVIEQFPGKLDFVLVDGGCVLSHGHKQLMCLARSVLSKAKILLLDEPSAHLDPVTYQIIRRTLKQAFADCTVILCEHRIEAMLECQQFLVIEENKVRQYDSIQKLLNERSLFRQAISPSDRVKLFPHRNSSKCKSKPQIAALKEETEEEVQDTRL
T2 sequence (P13569 whole entry G551D): as the sequence (P13569 whole entry) above, with G551D counted along it

Q: Which “increase in open probability (Po) of CFTR channel” value ([1]; 4 μM peptide, summary of 5 experiments (FIG. 1C)) does the source give for “GLEISEQINQQNLKQSFFNDLE (Ac-GLEISEQINQQNLKQSFFND[Nle]E; not fully specified (C-terminus)) [Q4N2NEG2, synthetic 22 amino acid peptide derived from NEG2 with four Glu to Gln, two Asp to Asn, Cys to Ser, Met to norleucine substitutions]” here?
A: The value was “about two-fold”.

Q: And the “inhibitory activity on CFTR channel” value ([1]; any experiment at any concentration of peptide)?
A: Its value is “No inhibitory activity”.

Q: What about the “stimulation of channel activity” value ([1]; concentration ranging 0.5 to 14 μM, cis side) of the same sequence?
A: Its value is “marked dose-related stimulation”.

Q: And the “Po of CFTR” value ([1]; peptide concentrations of 4-6 μM, cis side)?
A: The value was “doubles”.

Q: What about the “open probability during stimulation, single wt-CFTR channel” value ([1]; single channel trace, FIG. 1A/1B, 4 μM) of the same sequence?
A: The value was “doubles”.

Q: What about the “increase in open probability of G551D CFTR” value [2] of the same sequence?
A: The value was “about threefold”.
